Experimental data taken from a protein production outcome set (Wang et al. 2014).

Experiment: label from the status in PepcDB records

Row | Sequence | protein production
1 | MRMQQDVQDVKLIAVLNLLNQLSNKNSLEEYLNGVIDFLSGWTGCENIGIRVLREAGLAPYVVHRGFDKDFIASESCISVEGDECVCLRVLKQQFKSEDQDHISAAGTYYAPNFYRYVEELREDQLLNFRGLCAHKQFKSLAVIPLLHQGKVVGAIHIADIKDGVFSEEDIHFIETIRPLVAEAIYRHNLEKALESTVLRYEAEEMVIRKLKFEERLASISARFNQQEDFKAAAEESLKDILKLFKAEEVCLYLGGNLKEYVSVREHGQQACGCVIPSDTFAELRGRWKQGEILCQKPALQDEFKEIEYFAQEVFSKDSILTIPLNFKGSLLGVLIIVNISSGGLPFKEILNPLKLVTETFANAVEQGRIQYQLMWSENRYRTIFNHSGSAFLIVDENLKILLSNPQAERLLDLPSAKIDNIAYLTDFLPDTEVGRLKEYNRRRLQRDPQIPRQYEMKYKDSRGNLKDVIVSAEVIPQTTQTVLSIIDITEWKKTEAELQFLNLHDRLTGLYNRVYFEQELRRYETDPGQEVGLIMADVNGLKLINTTFGSEAGDQVLVTTARLLNECFEEHLVARIGGDEFAVLIEKDKNVDLEQACQLFRRNVEKYNKDHDGYPLDISLGYACSGAGGVNMSELLRKADDAMGREKLHSNNSTRNSQVQILSKALECRDFITEGHAERVQNLIISTGQLAGLSEQRLSDLKLFAQFHDIGKVGIPDQILFKKGRLTADEWEIMKQHCEIGYRIAQSTPDIYPIADWILKHHENWDGSGYPLGIAGEEIPIECRILAVADTFDAMTNDRPYRKAQSTQAAIEEILRCAGTQFDPHIVELFVKTV | failed
2 | MRMRRSFPFLAGSALLVVLSAPAVAADGDEGFTIGDSRITESSGLAASRLHPGVYWTHNDSDDGPYLYAVDSRTGKTVATVTLSGVGSPRDVEAISIGPGNEIYVGDIGDNLGGQWDHVWIYELPEPKVLEDQTIRATQYVVKYADGARDAESLMVHPKTGRVYIVDKKEDGGHLYEGPARLSASGTNVFEPLGAVGLWATDAAFSPDGKQLAVRGYFGGIAYTWNGGKIKRQGQLSVPLQRQGESVTYTADGSELMYGSEGADSAVKPGSVPGYSGSGAKSPSGGGGSASAQDGDSDGSHANYKVGALALAVALALGLGVKRLLRRG | failed
3 | MRMSRIQARLLQAIVRPALKTNLLKHAAWRVVLKLRNEFAHAVPPVELETTFDENIRILTSLSDHIESQVFWQGFQEADEGVILLLKRFLPSDGSFIDVGANIGTFTLVAAHRAVRGQVHAFEPSAHHFARLAHNVELNDFKNVALNRKGLYDQPGEAVLFLPSQTGEMNNSGAASLYTSALEETRQVSEAVSLIRLDDYVREKSIGRVDIIKIDIEGAELKALEGARETIARFRPLVFMELDLDNLERAERSPEEVLQYWKSLNYEVSIILLTGETVPVTSPKEFGLHQNLQCRPF | failed
4 | MRNETLVSIIVPVYNSAQYLRKCIDSILAQSYTEFELLLINDGSEDHSGLICDDYAQSDNRIQVFHQENAGVSAARNLGLEKHTGEHFLFIDSDDYIQERYLEELMKYASCDFVQCSCCSEPVGNDYLFVDGNFEGSDEIKQCLLKYIYPEFTVPFGRLYKSSIQRKNKLFFDTYLYSGEDTLWVSQYLLCVHSLRVSSYIGYIYVHHVGEHLSQKSISYEHLEYTLHKLLISYSDLEKRYDFDLTGVRYSVIIYFFHRYIVYIANRNYTEIRKELEKSCANPLIKGVFYDKKYLLKGKKMKLFNWLVLHDMYSVLALYVKRWKRYLLEHHHHHH | not failed
5 | MRNKDNQHSRLYYIILTIVIIAICVVVVILFNTLKTNRSHSTDRYADFTELKKDTIKNKDWRIKTKHRKNKDILVTAIHGGGIEPGTTEIARRISNVGKYNFYTFEGLRKSNNDQLHVTSTQFNEPILDKLLKNTKETLSIHGFSGDDPIVYIGGKDKEMSHSITKELRKKDFTVKESPNKIDAKSSDNIANKNESNSGVQLELTTALRKQFFKHYKLDRHTRSDSDKYTKDFYKFANAVQKGIEKVNLEHHHHHH | not failed
6 | MRNMQEKGVSEKEILEELKKYRSLDLKYEDGNIFGSMCSNVLPITRKIVDIFLETNLGDPGLFKGTKLLEEKAVALLGSLLNNKDAYGHIVSGGTEANLMALRCIKNIWREKRRKGLSKNEHPKIIVPITAHFSFEKGREMMDLEYIYAPIKEDYTIDEKFVKDAVEDYDVDGIIGIAGTTELGTIDNIEELSKIAKENNIYIHVDAAFGGLVIPFLDDKYKKKGVNYKFDFSLGVDSITIDPHKMGHCPIPSGGILFKDIGYKRYLDVDAPYLTETRQATILGTRVGFGGACTYAVLRYLGREGQRKIVNECMENTLYLYKKLKENNFKPVIEPILNIVAIEDEDYKEVCKKLRDRGIYVSVCNCVKALRIVVMPHIKREHIDNFIEILNSIKRD | not failed
7 | MRNVIAAVMASTLALSAYSQAAEVVTSVNWLPGDEGGQRGSQSHMFDGISLTEQQRQQLRDLMQRARHDRLPVNVSEMETMHRLVTAENFDENAVRAQAEKMAQEQVARQVEMAKVRNQMYHLLTPEQQAVLNAKHQQRMDQLREVARMQKGSAMMLSSSSNTLQPQ | failed
8 | MRNYIQGIDHVQVAAPVGCEEEARAFYGETIGMEEIPKPEELKKRGGCWFKCGNQEIHIGVEQNFNPAKRAHPAFYVLKIDEFKQELIKQGIEVIDDHARPDVIRFYVSDPFGNRIEFMENKN | not failed
9 | MRPIPEGYEAVFETVVTPEMTVRFEELGPVHPVYATYWMVKHMELAGRKIILPFLEEGEEGIGSYVEARHLASALPGMRVRVVARHEKTEGNRVYARVEAYNELGDLIGVGRTEQVILPKAKVEALFRRLKERWEAERSPS | not failed
10 | MRPNLLEALRAMTEGELYAALYQDPLTGVLNRRAFAGAIEEARAVALVDMDSLKWINDNLGHRAGDRALRVLADGLVRSFGADWVFRVSGDEFAVMDGDAEQLAQRLLLLRSSVPGFSFGTGSDMAEADRDMRHDKAEREKSGHRAARGLRPPWVP | failed
11 | MRQIPQNHIHTRSTPFWNKETAPAGIFERHLDKGTRPDVYPRLSVMQGAVKYLGYADEHCSEPEEIMVINAGEFGVFPPEKWHNIEVMTDDTYFNIDFFVAPEVLMEGATSRKVIHAGRELEHHHHHH | not failed
12 | MRQIRYAYAVAVDALYTFLADDGWAIASHIALSTLMALFPFLIVLTSLAGFVGSRELADSAAELLLDVWPAQVASTLSGEIHDVLTTTRGGVLTIGLVLALYFASNGVESLRVGLNRAYAVIEPRPWYLLRLESIGYTLVAAFTALAMGFLIVLGPLIVATARHYVPLLVHDNEPLLTFARYGIAITALTVALFLLHAYLPAGRRSFRQILPGIVFTITASLISGMTFGMYLARFANNYVSMYAGLASVIIALVFLYFIAAIFVYGGELNAAIIKSRLPEGTTLQEAQLRAPGAKPV | not failed
13 | MRQLTAAALYENLFGPLALAYAPGRPFEWRSNGRAWRARGRLGAFGRPRLEPGTVECRTGRAWRQASIADAVAALPGAPQEHARLRHELNQTEALLRWNRVNAPRHDRRRMSFSALDAAIDEGHPYHPCFKSRTGFDEHDHRCYGPEADGTFQLDWLGVARELLHLSFPSTEASFWKRELGAAGLADIEARAAALGLEHDRFGLMPIHPWQWRDLSADRLRPLLQSGRIHYLGAAGDRYRASQSVRTLSNAQAPHRSSVKLALGIVNTSTRRNIEAHSVATAPVLSRWLDTILDSDPLFRLRYRLDIVSEFAGAIVDRDGPLGGEIAAIWRESVESKLADGESAVPFNALMAIEADGLPFIDPWLQRYGLKPWLDRLVEVAVLPVWRLLVVHGIATEAHGQNMVLVHRDGWPERLILRDFHDSLEFVPDFLADPNLAPDFLTLDPRYRRALPNQYYWMERPEDLRDLFVDCLFVFNLSEISHLVQSFYGISEGAFWHRVSLRLAADIAEHGLGERVARLGFGTPEIVIESLLARKLGLSGDALQHNVPNPLAAVVPLAREYA | failed
14 | MRRAEIPMNPLINHPAILFVVMLVVMSSATALGALVLRRIRPLPAEVKDDFGIVQGATLTLLALLIGFTLSMAVGRYDQRKNLEEEEANAIGTEYLRADLIEGPEAEQVKALLVRYLDQRILYYRTRDSAQLQEIEAATSQIEDEMWKLMRSAARAKPTPITGLVVSGMNDVINSQGYAEAAWINRIPVSAWGLMIVIAFFSSMMQGYGARSENAKIILMLVLPFTVSLSLALISDIDSPRGGLIRVLPQNLLSLQASLKR | failed
15 | MRRAGYLHLYGLNLVFDRVGKGPPVLLVAEEASRWPEALPEGYAFYLLDLPGYGRTEGPRMAPEELAHFVAGFAVMMNLGAPWVLLRGLGLALGPHLEALGLRALPAEGVEVAEVLSSKLSYGNIDLGGNL | not failed
16 | MRRELLLEKIETYKAIMPWYVLDYYQSKLAVPYSFTTLYEYLKEYKRFFDWLMDADLTQAPKIADIDLSTLEHLTKKDLEAFVLYLRERPSLNTYSTKEGLSQTTINRTLSALSSLYKYLTEEVENDQGEPYFYRNVMKKVSTKKKKETLASRAENIKQKLFLGDETLAFLDYVDKEYEQKLSNRAKSSFRKNKE | failed
17 | MRRFNTSQNKNERNLFNDYIKNEDELYDERDDEGINKEPISLKADVNNNFFPIDQIHSTYFLCNNLNNDNTEKEINEHISFEKIQDHEKEEKKKIFLFNLSDNQKKQIENLKINKIIQNEMYLKKNKILKYIIHIFISDILKEKPNDVYDYASNYFTQPQFKMYILEKLKLRINK | failed
18 | MRRGLVIVGHGSQLNHYREVMELHRKRIEESGAFDEVKIAFAARKRRPMPDEAIREMNCDIIYVVPLFISYGLHVTEDLPDLLGFPRGRGIKEGEFEGKKVVICEPIGEDYFVTYAILNSVFRIGRDGKGEE | not failed
19 | MRRHTSSLDDQSLWRVALDYARDAAVIIDDGGHICYVNQAAERIWGIGRADLVGSHSDCLGVDAIQPEPVAGSHLTNAASDLPLAIDITSRDNRSITAELTRSTIRVDGLNYTMLTVRDVT | failed
20 | MRRILGPVLAAHYLAAFTALGMPLFLPQVLAELAPSAAVGWSGVLYVLPTLCTALTASTWGRWADRNGRKRSLLRAQLGLALGFAIAGFAPSLTWLVIGLIVQGTCGGSLAAANAYLASQPQAGPLARALDWTQYSARLAMVSAPALLGLALALGPAQSLYRALALLPLIAFALTWRLPADQPAAREPAAGTPATSLKHAASSPASPRTVAATSWPALLLAQFLFCFAMVVTFPYFIPYALARGAGHDALAGLLYSLPHLVYLVVLPWWRRGDGEAWLVPGLALFAAACVWQALLHDALALAAARLLFGFGMLFGLRGLNRSLAHIASGHSAGRLFGRFDACGKWAGVFAGAAAGALAQASGPATPFLAAALAAAAAALTVLVRFPSRRTADVAAHDA | failed
21 | MRRLPPWMLGGASTGEAAARNGSQPEAPKTKAEKRPKRVQKTKEKDLNLKSDEPKRVPRKIREEAKRSPEVIQSVTVPEDDDLTVDDLLSFANEVM | failed
